Reference: patent US20090074779A1

Biological target: TrkC, Q16288
Test: SPR (BIAlite), receptor amine-coupled on CM4 chip, ligand injected, 25 C
Settings: remark: other sources report otherwise

Chain of TrkC, Q16288 (Q16288 32-429 limits assumed): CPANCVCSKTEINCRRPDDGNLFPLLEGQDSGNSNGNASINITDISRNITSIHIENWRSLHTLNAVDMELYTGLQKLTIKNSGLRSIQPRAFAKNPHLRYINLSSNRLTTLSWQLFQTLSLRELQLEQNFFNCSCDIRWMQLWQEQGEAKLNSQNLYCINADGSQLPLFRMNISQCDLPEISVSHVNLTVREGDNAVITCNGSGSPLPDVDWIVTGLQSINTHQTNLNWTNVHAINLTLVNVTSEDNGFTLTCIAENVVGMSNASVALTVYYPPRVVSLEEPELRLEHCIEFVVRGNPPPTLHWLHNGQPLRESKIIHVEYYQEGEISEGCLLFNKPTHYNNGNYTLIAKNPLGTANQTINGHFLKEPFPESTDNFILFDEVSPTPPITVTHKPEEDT

B1: BDNF, P23560 129-247 (ligand, UniProt P23560 129-247, looked up)
chain: HSDPARRGELSVCDSISEWVTAADKKTAVDMSGGTVTVLEKVPVSKGQLKQYFYETKCNPMGYTKEGCRGIDKRHWNSQCRTTQSYVRALTMDSKKRIGWRFIRIDTSCVCTLTIKRGR
- Kd: 14 nM
